The EC50 is the concentration giving half of the maximal effect. A higher EC50 goes with a less potent agent.

This note sets out measurements from patent publication US20260116966A1 (KEYMED BIOSCIENCES CHENGDU, published 2026).

The target of experiment [1] is T1, human GPRC5D (human, UniProt Q9NZD1 1-345).
T1 construct: Full length, on stably transfected cells (HEK293-hGPRC5D, CHO-hGPRC5D); Also used here for the endogenous GPRC5D of the GPRC5D+ myeloma lines MM.1R, MM.1S and NCI-H929; also called hGPRC5D; G-protein-coupled receptor family C group 5 member D
The experiment can be described thus: flow cytometry on CHO-hGPRC5D cells. In general terms: Flow cytometry measures light scatter and fluorescence of single cells or particles in a stream.
Description: (§1) The binding of the antibodies to human and Cynomolgus GPRC5D stably transfected cells was detected by flow cytometry. […] Then, 100 μl/well of the cell suspension was added to a 96-well U-shaped plate, and centrifuged at 300 g for 5 min. The supernatant was discarded. 100 μL per well of serially diluted antibody was added (initial concentration: 200 nM, 3-fold dilution, 12 gradients), and incubated at 4° C. for 45 min. The secondary antibody 50 μL/well of Alexa Fluro647 labeled goat anti-human IgG Fc (1:300 dilution) was added, incubated on ice for 45 min, and detected by flow cytometry.

In another experiment the target is T2, Cynomolgus GPRC5D (Cynomolgus, UniProt Q9NZD1 1-343 (human entry)).
T2 construct: Full length, on stably transfected cells (HEK293-cyGPRC5D, CHO-cyGPRC5D); also called cyGPRC5D
T2 chain: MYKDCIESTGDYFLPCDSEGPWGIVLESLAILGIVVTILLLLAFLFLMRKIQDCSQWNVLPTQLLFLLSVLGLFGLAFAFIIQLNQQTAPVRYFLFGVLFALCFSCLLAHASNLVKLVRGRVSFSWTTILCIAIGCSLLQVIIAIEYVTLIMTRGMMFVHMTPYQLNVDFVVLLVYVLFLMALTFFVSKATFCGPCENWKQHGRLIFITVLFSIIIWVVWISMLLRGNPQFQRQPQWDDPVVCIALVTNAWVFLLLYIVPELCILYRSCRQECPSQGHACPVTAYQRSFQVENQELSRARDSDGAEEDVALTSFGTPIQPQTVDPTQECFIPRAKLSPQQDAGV
The experiment can be described thus: flow cytometry, CHO-cyGPRC5D cells.

Experiment [2] addresses T1, human GPRC5D. The experiment can be described thus: cell-based or functional assay.
Experiment [3] concerns the target T1, human GPRC5D. The experiment is described as follows: flow cytometry, MM.1R cells.
Description: The cell suspension was adjusted to a concentration of 5×10⁵ cells/mL, and 100 μL per well was added to a 96-well U-shaped plate, centrifuged at 300 g for 5 min. The supernatant was discarded. 100 μL per well of serially diluted antibody was added (initial concentration: 200 nM, 3-fold dilution, 10 gradients), and incubated at 4° C. for 60 min. The primary antibody was washed away, and 50 μL/well Alexa Fluro647 labeled goat anti-human IgG FC (1:300 dilution) was added, and incubated for 20 min. After washing once, 50 μL/well of PI was added, incubated for 5 min, and detected by flow cytometry.

T1 sequence (Q9NZD1 whole entry): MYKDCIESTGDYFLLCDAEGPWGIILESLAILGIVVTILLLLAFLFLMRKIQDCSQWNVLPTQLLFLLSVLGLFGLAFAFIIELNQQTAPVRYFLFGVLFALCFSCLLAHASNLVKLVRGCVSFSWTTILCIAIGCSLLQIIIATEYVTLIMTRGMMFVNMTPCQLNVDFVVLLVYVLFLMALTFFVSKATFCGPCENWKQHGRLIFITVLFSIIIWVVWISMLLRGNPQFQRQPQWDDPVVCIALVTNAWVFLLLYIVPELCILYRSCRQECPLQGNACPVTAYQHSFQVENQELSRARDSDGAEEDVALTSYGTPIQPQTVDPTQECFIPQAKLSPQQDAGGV
Description for Cynomolgus GPRC5D: as §1

B1: anti-GPRC5D chimeric antibody 18E7 (antibody, V domains shown)
VH: EVQLQQSGPELVKPGASVKMSCKASEYTFTNYVMYWVKQKPGQGLEWIGYINPYNDGTKYNEKFKGKATLTSDKSSSTAYMELSSLTSEDSAVYYCVRGGMLTTRSLFAYWGQGTLVTVSA
VL: DIQMTQSPSSLSASLGERVSLTCRASQRISGYLSWLQQKPDGTIKRLIYAASTLDSGVPKRFSGSRSGSDYSLTISSLESEDFADYYCLQYASYPPTFGGGTKLEIK
On to B1, for which the binding result in the experiment with human GPRC5D [1] and with Cynomolgus GPRC5D was “binds” throughout.

B2: anti-GPRC5D chimeric antibody 17D12 (antibody, V domains shown)
VH: EVQLQQSGPELVKPGASVKMSCKASGYTFTSYVMYWVKQKPGQVLEWIGYINPYNDGTKYNERFTGKATLTSDKSSSTAYMELSSLTSEDSAVYYCARGGMLTTRSLFLYWGQGTLVTVSA
VL: DIVMSQSPSSLSASLGERVSLTCRASQEISGYFSWLQQKPDGTIKRLIYAASTLDSGVPKRFSGSRSGSDYSLTISSLESEDFADYYCLQYASYPPTFGGGTKLEIK
For B2, the binding result in the experiment with human GPRC5D [1] and with Cynomolgus GPRC5D was “binds” each time.

B3: anti-GPRC5D chimeric antibody 15A6 (antibody, V domains shown)
VH: EVQLQQSGPELVKPGASVKMSCKASGYTFTNYVMYWVKQKPGQVLEWIGYINPYNDGTKYNEKFTGKATLTSDKSSSTAYMELSSLTSEDSAVYYCARGGMLTTRSLFVYWGQGTLVTVSA
VL: DIQMTQSPSSLSASLGERVSLTCRASQEISGYFSWLQQKPDGTIKRLIYAASTLDSGVPKRFSGSRSGSDYSLTISSLESEDFADYYCLQYASYPPTFGGGTKLEIK
Take B3: the binding result with human GPRC5D [1] and with Cynomolgus GPRC5D was “binds” in each case.

B4: anti-GPRC5D chimeric antibody 12A4 (antibody, V domains shown)
VH: EVQLQQSGPELVKPGASVKMSCKASEYTFTNYVMYWVKQKPGQGLEWIGYINPYNDGTKYNEKFKGKATLTSDKSSSTAYMELSSLTSEDSAVYYCVRGGMLTTRSLFTYWGQGTLVTVSA
VL: DIQMTQSPSSLSASLGERVSLTCRASQRISGYLSWLQQKPDGTIKRLIYAASTLDSGVPKRFSGSRSGSDYSLTISSLESEDFADYYCLQYASYPPTFGGGTKLEIK
In the case of B4, the binding result with human GPRC5D [1] and with Cynomolgus GPRC5D was “binds” throughout.

B5: anti-GPRC5D chimeric antibody 19E2 (antibody, V domains shown)
VH: EVQLQQSGPELVKPGASVKMSCKASEYTFTNYVMYWVKQKPGQGLEWIGYINPYNDGTKYNEKFKGKATLTSDKSSSTAYMELSSLTSEDSAVYYCVRGGMLTTRSLFAYWGQGTLVTVSA
VL: DIQMTQSPSSLSASLGERVSLTCRASQRISGYLSWLQQKPDGTIKRLIYAASTLDSGVPKRFSGSRSGSDYSLTISSLESEDFADYYCLQYANYPPTFGGGTKLEIK
On to B5, for which the binding result in the experiment with human GPRC5D [1] and with Cynomolgus GPRC5D was “binds” in each case.

B6: anti-GPRC5D chimeric antibody 14D1 (antibody, V domains shown)
VH: EVQLQQSGPDLVKPGASVKMSCKASGYKFTSYVMYWVKQKTGQGLEWIGYINPYNDGTKYNEKFKGKATLTSDKSSSTAYMEFSSLTSEDSAVYYCVRGGMLTTRSLFAYWGQGTLVTVSA
VL: DIQMTQSPSSLSASLGERVSLTCRASQEISGYFSWLQQKPDGTIKRLIYAASTLDSGVPKRFSGSRSGSDYSLTISSLESEDFADYYCLQYASYPPTFGGGTKLEIK
Take B6: the binding result with human GPRC5D [1] and in the experiment with Cynomolgus GPRC5D was “binds” in each case.

B7: anti-GPRC5D chimeric antibody 15H5 (antibody, V domains shown)
VH: EVQLQQSGPELVKPGASVKMSCMASGYTFTSYVMYWVKQKPGQGLEWIGYINPYNDGTKYNEKFKGKATLTSDKSSSTAYMELSSLTSEDSAVYYCARGGMLTTRSLFVYWGHGTLVTVSA
VL: DIQMTQSPSSLSASLGERVSLTCRASQEISGYLSWLQQKPDGTIKRLIYAASTLDSGVPKRFSGSRSGSDYSLTISSLESEDFADYYCLQYASYPPTYGGGTKLEIK
As for B7, the binding result in the experiment with human GPRC5D [1] and with Cynomolgus GPRC5D was “binds” each time.

B8: 2E1 × CD3 GPRC5D×CD3 κλ bispecific antibody (bispecific antibody, human IgG4, V domains shown)
VH 1: QVQLVQSGAEVKKPGSSVKVSCKASGYTFTRYWMHWVREAPGQGLEWMGEFNPSNGRINYNEKFQGRVTLTIDKSSSTAYMELSSLRSEDTAVYYCTRGFAYWGQGTLVTVSS
VL 1: EIVLTQSPATLSLSPGERATLSCRASSTVSYIHWYQKKPGQAPRRLIYDTSKLASGIPARFSGSGSGTDYTLTISSLEPEDFAVYYCQQWTTNPWTFGGGTKVEIK
VH 2: EVQLVESGGGLVQPGGSLRLSCAASGFTFNTYAMNWVRKAPGKGLEWVGRIRSKYNNYATYYADSVKDRFTISRDDSKNSLYLQMNSLKTEDTAVYYCVRHGNFGNSYVSWFAYWGQGTLVTVSS
VL 2: QAVVTQEPSLTVSPGGTVTLTCRSSTGAVTTSNYANWVQEKPGQAPRGLIGGTNKRAPWTPARFSGSLLGGKAALTITGAQAEDEAEYYCVLWYSNLWVFGGGTKLTVL
notes: Human IgG4 knob-into-hole Fc with Ser228Pro, Leu235Glu, Pro329Ala; kappa light chain on the GPRC5D arm, lambda on the CD3 arm
With B8, the “TDCC EC50 (pM), MM.1R” value in the experiment with human GPRC5D [2] came to 161 pM. Besides, in the experiment with human GPRC5D [3], the EC50 stood at 6.88 nM and the “Maximum fluorescence intensity (MFI, 200 nM)” value came out at 65700 MFI.

B9: anti-GPRC5D chimeric antibody 10B1 (antibody, V domains shown)
VH: QVQLQQSGAELARPGASVKMSCKASGYIFTSYTMYWVKQRPGQGLEWIGYINPSSGYTNYNQKFKDKATLTADKSSSTAYMQLSSLTSEDSAVYYCARWGGNERLYYYAMDYWGQGTSVTVSS
VL: QIVLTQSPAIMSASPGEKVTITCSASSSVSYMYWFQQKPGTSPKLWIYGTSNLASGVPARFSGSGSGTSYSLTISRMEAEDAATYYCQQRSSYPLTFGAGTKLELK
In the case of B9, the binding result in the experiment with human GPRC5D [1] and in the experiment with Cynomolgus GPRC5D was “binds” each time.

B10: anti-GPRC5D chimeric antibody 10E8 (antibody, V domains shown)
VH: EVQLQQSGPELVKPGASMKISCKASGYSFTGYTMNWVKQRHGKNLEWIGLINPYNGGTSYNQKFKGKATLTVDKSSSTAYMELLSLTSEDSAVYYCARLPIRNGMDYWGQGTSVTVSS
VL: DIVLTQSPATLSVTPGDSVSLSCRASQSISNNLHWYQQKSHESPRLLVKFASLSISGIPSRFSGSGSGTDFTLSINSVETEDFGMYFCQQSNSWPQTFGGGTKLEIK
With B10, the binding result with human GPRC5D [1] and with Cynomolgus GPRC5D was “binds” in each case.

B11: anti-GPRC5D chimeric antibody 22C1 (antibody, V domains shown)
VH: EVQLQQSGPELVKPGTSMKISCKASGYSFTGYTMNWVKQSHGKNLEWIGLINPYNGGSNYNLKFKGKATLTVDKSSNTAYMELLSLTSEDSAVYYCARWGLRNAMDYWGQGTSVTVSS
VL: DIVVTQSPATLSVTPGDSVSLSCRASQSISNNLHWFQQKSHESPRLLIKYASQSISGIPSRFSGSGSGTDFTLSINSVETEDFGMYFCQQSNSWPQTFGGGTKLEIK
Take B11: the binding result with human GPRC5D [1] and with Cynomolgus GPRC5D was “binds” throughout.

B12: anti-GPRC5D chimeric antibody 1C1 (antibody, V domains shown)
VH: QAYLQQSGAELVRSGASVKMSCKASGYTFTSYNMHWVKQTPGQGLEWIGYIYPGNGGTNYNQKFKAKATLTADTSSSTAYMQISSLTSEDSAVYFCARGYGYRYWYFDVWGAGTTVTVSS
VL: NIVLTQSPAIMSASPGEKVTMTCSASSSVRFMHWYQQKSGTSPKRWIYDTSKVASGVPARFSGSGSGTSYSLTIRSMEAEDAATYYCQQWSSNPLTFGAGTKLELK
With B12, the binding result with human GPRC5D [1] and with Cynomolgus GPRC5D was “binds” each time.

B13: anti-GPRC5D chimeric antibody 18C3 (antibody, V domains shown)
VH: EVQLVESGGDLVKPGGSLKLSCAASGFTFSSYGMSWVRQTPDKRLEWVATISSGGSYTYYPDSVKGRFTISRDNAKNTLYLQMSSLKSEDTAMYYCARHEARATFDYWGQGTTLTVSS
VL: DIVMTQAAPSVPVTPGESVSISCRSSKSLLHSNGNTYLYWFLQRPGQSPQLLIYRMSNLASGVPDRFSGSGSGTAFTLRISRVEAEDVGVYYCMQHLEYPFTFGSGTKLEIK
As to B13, the binding result in the experiment with human GPRC5D [1] and with Cynomolgus GPRC5D was “binds” each time.

B14: anti-GPRC5D chimeric antibody 8C2 (antibody, V domains shown)
VH: EVQLVESGGDLVKPGGSLKLSCAASGFTFSSYGMSWVRQTPDKRLEWVATISSGGSYTYYPDSVKGRFTISRDNAKNTLYLQMSSLKSEDTAMYYCARHGGSSSYVMDYWGQGTSVTVSS
VL: DIVMTQAAPSVPVTPGESVSISCRSSKSLLHSNGNTYLYWFLQRPGQSPQLLIYRMSNLASGVPDRFSGSGSGTAFTLRISRVEAEDVGVYYCMQHLEYPFTFGSGTKLEIK
Consider B14, for which the binding result with human GPRC5D [1] and in the experiment with Cynomolgus GPRC5D was “binds” each time.
